The target of one series is T1, MBP-APE1L (Arabidopsis thaliana (Col-0), UniProt Q5XF07 1-364).
T1 sequence: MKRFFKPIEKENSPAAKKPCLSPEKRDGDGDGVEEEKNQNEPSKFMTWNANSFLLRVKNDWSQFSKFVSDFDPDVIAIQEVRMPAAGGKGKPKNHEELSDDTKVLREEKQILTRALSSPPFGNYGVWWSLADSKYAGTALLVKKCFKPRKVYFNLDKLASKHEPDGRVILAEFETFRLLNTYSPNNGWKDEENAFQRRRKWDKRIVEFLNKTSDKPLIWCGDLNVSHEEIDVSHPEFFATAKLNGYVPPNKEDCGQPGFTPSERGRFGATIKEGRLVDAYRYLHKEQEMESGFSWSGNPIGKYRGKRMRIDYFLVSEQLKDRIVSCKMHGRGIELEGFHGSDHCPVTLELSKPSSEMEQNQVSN
Put plainly: EMSA; no Mg2+ listed; 100 and 300 nM protein, 50 nM DNA; EMSA: 10 mM Tris-HCl pH 8.0, 150 mM NaCl, 0.05% Triton X-100, 0.1 mg/mL BSA, 10% glycerol, 10 mM DTT; on ice 10 min; 8% native gel. The following applies: protein: recombinant; tags: N-terminal MBP (HRV 3C site); HisTrap purified; label: 32P (5' end of strand 1); blunt. On the technique in general: A gel shift assay detects complexes by their altered migration in electrophoresis.

Another series has as its target T2, MBP-ARP (Arabidopsis thaliana (Col-0), UniProt P45951 1-536).
T2 sequence: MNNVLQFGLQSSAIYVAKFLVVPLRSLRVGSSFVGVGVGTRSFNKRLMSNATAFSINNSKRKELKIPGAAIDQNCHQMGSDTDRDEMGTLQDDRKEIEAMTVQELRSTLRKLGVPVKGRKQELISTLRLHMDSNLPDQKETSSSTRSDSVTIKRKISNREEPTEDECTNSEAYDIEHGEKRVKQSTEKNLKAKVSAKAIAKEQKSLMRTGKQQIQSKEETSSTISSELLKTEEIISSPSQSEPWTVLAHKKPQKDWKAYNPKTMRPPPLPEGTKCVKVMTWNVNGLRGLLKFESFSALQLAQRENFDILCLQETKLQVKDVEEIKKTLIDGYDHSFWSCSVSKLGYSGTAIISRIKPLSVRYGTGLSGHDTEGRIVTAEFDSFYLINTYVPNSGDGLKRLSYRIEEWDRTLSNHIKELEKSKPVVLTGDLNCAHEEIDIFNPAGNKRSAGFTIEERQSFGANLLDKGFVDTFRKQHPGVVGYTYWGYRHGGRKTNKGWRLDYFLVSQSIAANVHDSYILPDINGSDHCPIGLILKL
The series is described as above. To be noted: protein: recombinant; tags: N-terminal MBP (HRV 3C site); HisTrap purified; label: 32P (5' end of strand 1); blunt.

The text below walks through data of article PMC4191409, “AP endonucleases process 5-methylcytosine excision intermediates during active DNA demethylation in Arabidopsis”.

B1: F35[5mC]/R35 (5mC 35-mer) (dsDNA)
DNA 1: GTACTGTGTGATACTATCGAATTCAGTATGATCTG
DNA 2: CAGATCATACTGAATTCGATAGTATCACACAGTAC
modifications: 5-methylcytosine at position 18 of strand 1
As to B1, the binding result with MBP-APE1L and with MBP-ARP was “binds” each time.
